According to the supplement of paper PMC12042874:
± gives the uncertainty stated by the source.

Test: amyloid nucleation score (Sup35N fusion, yeast selection) (log enrichment); library NNK2; higher = more nucleation; inactive = no reads after selection
In short: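 Peptides of 20 random codons fused to Sup35N were expressed in psi-negative yeast, induced 24 hours with 100 μM copper sulfate, then grown 7 days at 30°C on medium lacking adenine and uracil. Input and output plasmid inserts were Illumina-sequenced. Nucleation score is the DiMSum log enrichment of output over input reads, centred on the mode score of non-aggregating sequences, excluding sequences with under 100 input reads. Random libraries had three technical output replicates.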

TNCSPVVPSCD and TNDMVDHVRRSNHDI are within error of each other in amyloid nucleation score: 0.224 ± 0.57 for the first, 0.871 ± 0.31 for the second.

TNIQN and TNKYLVGSILYLFKHGWLGV are within error of each other in amyloid nucleation score: -0.69 ± 0.61 for the first, 0.067 ± 0.55 for the second.

Going from TPFAHSGSWCNSERLVPRLV to TPGLCSNL, the amyloid nucleation score falls from 0.364 ± 0.33 to -1.44 ± 1.

Compared with TPIRVFGNYNSFHFCTMSS, TPSDGCQHMASVVISI is lower in amyloid nucleation score: 8.302 ± 0.053 for the first, 0.683 ± 0.8 for the second.

Compared with TQCSLRLKFTCYAMRSFGQY, TRGNM is lower in amyloid nucleation score: 5.02 ± 0.096 for the first, 0.63 ± 0.39 for the second.

First: TRINMGIFCLQDKVPMLRDE
Second: TRIVS
The amyloid nucleation score of the first is higher: 3 ± 0.082 for the first, -0.415 ± 0.25 for the second.

Compared with TRMNSVYKVEIRRLVKMVSW, TRNWRGYVCYSEVIIVVKQE is lower in amyloid nucleation score: 0.242 ± 0.21 for the first, -0.839 ± 0.78 for the second.

First: TRRGF
Second: TRSPCGRCDSEFLNASLAGL
The amyloid nucleation score of the first is lower: -0.357 ± 0.3 for the first, 0.71 ± 0.36 for the second.

First: TRVGGWKTSG
Second: TRYYMYIRDVH
The amyloid nucleation score of the first is higher: 0.945 ± 0.32 for the first, -0.533 ± 0.44 for the second.

First: TSERRLNYTCCNYWYMG
Second: TSFGWSGSCKLMYSMSTSGT
The amyloid nucleation score of the first is higher: 9.053 ± 0.04 for the first, 0.636 ± 0.3 for the second.

Compared with TSGFSIIRVIVNYIYALETR, TSGLAGGDWNWAS is lower in amyloid nucleation score: 3.86 ± 0.12 for the first, 0.314 ± 0.64 for the second.

TSIYYISNIA and TSKWQRNLFGDGSLKEFTGE are within error of each other in amyloid nucleation score: 0.568 ± 0.24 for the first, -0.712 ± 1.1 for the second.

TSNCS and TSNRRTYGWHDQTCGQGVWY are within error of each other in amyloid nucleation score: 0.579 ± 0.3 for the first, 1.1 ± 0.29 for the second.

First: TSNRTTNSLLMCDKLRNTSV
Second: TSPRRACWSIQSDDWFGFEW
The amyloid nucleation score of the first is lower: -0.345 ± 0.25 for the first, 1.33 ± 0.38 for the second.

Compared with TSQQRAYITP, TSSCFDCSFNMEFLMVLVSF is higher in amyloid nucleation score: -0.703 ± 1 for the first, 1.52 ± 0.2 for the second.

Going from TSSLDEEALS to TSSLYISMMVLL, the amyloid nucleation score rises from -0.648 ± 0.55 to 4.07 ± 0.074.

Compared with TSSSYTSTFDRGLMNLRTCL, TSSWIMIRS is higher in amyloid nucleation score: -0.039 ± 0.25 for the first, 1.52 ± 0.19 for the second.

Going from TTCDNEREGTLKYVNVCCNL to TTENNCLVREKVVYGWMWSS, the amyloid nucleation score falls from 5.42 ± 0.045 to 0.149 ± 0.25.

Compared with TTFMRVVLFAPVLYMYGKNR, TTGNQLKKCVDKCGGRSGGE is lower in amyloid nucleation score: 5.492 ± 0.043 for the first, 0.938 ± 0.45 for the second.

TTHVNLIKRRGYFRRCVFQL and TTLYGNSRFTVCMTKGW are within error of each other in amyloid nucleation score: 0.087 ± 0.79 for the first, -0.271 ± 0.74 for the second.

TTLYMACYSSCDEGN and TTRSRVWRKLGSSCTI are within error of each other in amyloid nucleation score: -0.193 ± 0.27 for the first, 0.242 ± 0.31 for the second.

First: TTSGNTIHIYVIQLSIQKFS
Second: TVASTYVLVTCHRAFDQS
The amyloid nucleation score of the first is higher: 5.39 ± 0.06 for the first, 3.46 ± 0.079 for the second.

Compared with TVFWGTMVGPQRGVVGLESF, TVGEPIIRLYRFVRFFCLAN is lower in amyloid nucleation score: 0.593 ± 0.74 for the first, -1.79 ± 0.78 for the second.

Compared with TVGIAKKNMVR, TVGRWH is lower in amyloid nucleation score: 0.503 ± 0.43 for the first, -0.939 ± 0.76 for the second.

Going from TVMCLNLLR to TVMLCSMISYKAVLVTYVGG, the amyloid nucleation score falls from 6.454 ± 0.026 to 1.87 ± 0.13.

Compared with TVMYSGVG, TVRANLKTRCMSRTTNQEHT is higher in amyloid nucleation score: 0.501 ± 0.46 for the first, 1.85 ± 0.15 for the second.

TVRFVRFYSPLWLSVTYRLT and TVRVST are within error of each other in amyloid nucleation score: 0.412 ± 0.55 for the first, -0.004 ± 0.36 for the second.

In the case of TVSRIMLGNGKYFKHVL, the amyloid nucleation score is reported as 2.3 ± 0.064.

For TNGLLNYCSRYTDLDNGSYR, the amyloid nucleation score was “inactive”.
For TNKYFCTFGAHGARDLQMHV, the amyloid nucleation score was “inactive”.
In the case of TSAPSKSLLLGVIIIGAFPD, the amyloid nucleation score is reported as “inactive”.
In the case of TSWCSIHTVMLYLFLIVCQY, the amyloid nucleation score is reported as “inactive”.
For TTALGRFMFDLCNDDWYSLV, the amyloid nucleation score was “inactive”.
In the case of TVIIDDTCICFYYIEYMWCE, the amyloid nucleation score is reported as “inactive”.
In the case of TVLLWD, the amyloid nucleation score is reported as “inactive”.
For TVLPAVCYGVLNSRFRVTME, the amyloid nucleation score was “inactive”.
